These results are taken from PMC6135763 (Nature Communications, 2018).

The target in experiment [1] is T1, Importin α3ΔIBB (residues 64–521) (human, UniProt O00629 64-521).
T1 construct: also called Impα3; KPNA4
T1 sequence (looked up): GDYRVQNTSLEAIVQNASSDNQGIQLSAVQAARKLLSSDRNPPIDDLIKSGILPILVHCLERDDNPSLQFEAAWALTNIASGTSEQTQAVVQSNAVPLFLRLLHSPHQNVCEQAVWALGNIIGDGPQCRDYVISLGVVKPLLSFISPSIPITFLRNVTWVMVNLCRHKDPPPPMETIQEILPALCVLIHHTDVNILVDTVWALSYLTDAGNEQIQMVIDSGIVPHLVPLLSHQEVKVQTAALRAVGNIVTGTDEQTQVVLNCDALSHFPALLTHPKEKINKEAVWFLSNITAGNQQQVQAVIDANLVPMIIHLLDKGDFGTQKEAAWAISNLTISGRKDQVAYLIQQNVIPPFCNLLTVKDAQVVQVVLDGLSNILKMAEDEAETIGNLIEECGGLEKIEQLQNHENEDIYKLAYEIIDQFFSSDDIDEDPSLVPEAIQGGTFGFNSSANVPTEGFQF
The experiment in a line: ELISA. The conditions noted are these: both partners purified. (In general: ELISA stands for enzyme-linked immunosorbent assay.)

Experiment [2] addresses Importin α7ΔIBB (residues 73–536) (human, UniProt O60684 73-536). The experiment is described as follows: ELISA. The conditions noted are these: both partners purified.

Chain of Importin α7ΔIBB (residues 73–536) (O60684 73-536, stated change not applied): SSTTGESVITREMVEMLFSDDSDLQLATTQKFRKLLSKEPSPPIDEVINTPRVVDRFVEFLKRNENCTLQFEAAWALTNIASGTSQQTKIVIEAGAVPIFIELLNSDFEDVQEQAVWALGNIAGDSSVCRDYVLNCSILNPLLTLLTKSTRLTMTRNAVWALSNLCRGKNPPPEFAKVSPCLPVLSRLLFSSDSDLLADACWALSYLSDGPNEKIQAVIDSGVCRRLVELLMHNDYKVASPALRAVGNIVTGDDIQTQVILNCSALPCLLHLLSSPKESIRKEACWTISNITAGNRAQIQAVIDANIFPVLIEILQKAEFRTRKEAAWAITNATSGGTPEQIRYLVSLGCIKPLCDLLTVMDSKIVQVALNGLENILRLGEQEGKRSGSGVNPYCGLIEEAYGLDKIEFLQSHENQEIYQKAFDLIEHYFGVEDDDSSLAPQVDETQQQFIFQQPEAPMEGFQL

Turning to RSLNMLGRKTCLGRRVVQPGMFADYPPTKKARVLLRRMSN (domain or fragment) [GST-HeV W (C-terminal NLS domain of Hendra virus W protein, residues 409–448, GST fusion)], the values for the Kd in experiment [1] and in experiment [2] were 19.9 nM and 1500 nM, respectively.

Take RNIHLLGRKTCLGRRVVQPGMFEDHPPTKKARVSMRRMSN (domain or fragment) [GST-NiV W (C-terminal NLS domain of Nipah virus W protein, residues 411–450, GST fusion)]: the Kd (usually a measure of binding affinity in units of concentration) is 14.4 nM in experiment [1] and 1100 nM in experiment [2].
